Results: the supplement of paper PMC11811203

B1: THAP1; numbered along this chain (parent)
chain: MVQSCSAYGCKNRYDKDKPVSFHKFPLTRPSLCKEWEAAVRRKNFKPTKYSSICSEHFTPDCFKRECNNKLLKENAVPTIFLCTEPHDKKEDLLEPQEQLPPPPLPPPVSQVDAAIGLLMPPLQTPVNLSVFCDHNYTVEDTMHQRKRIHQLEQQVEKLRKKLKTAQQRCRRQERQLEKLKEVVHFQKEKDDVSERGYVILPNDYFEIVEVPA

Variants of: B1
Test: THAP1 transcriptional activity (GFP+/GFP- enrichment relative to wild-type constructs) (ratio to WT); higher = more THAP1 activity (PSMB5 reporter activation)
Settings: with PSMB5 promoter-GFP reporter
Method in brief: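 A lentiviral site-saturation library covering residues 2–213 of human THAP1, with each position changed to all 20 amino acids, was transduced in duplicate at MOI ~0.3 into THAP1-knockout HEK-293T cells with mClover3 knocked in at endogenous PSMB5. Five days later, BFP+ cells were sorted into GFP-dim and GFP-bright bins and variants were counted by Illumina sequencing of genomic DNA amplicons. Activity is the bright/dim read fold change averaged over replicates and divided by the mean of wild-type synonymous constructs.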
MVQSCSAYGCKNRYDKDKPVSFHKFPLTRPSLCKEWEAAVRRKNFKPTKYSSICSEHFTPDCFKRECNNKLLKENAVPTIFLCTEPHDKKEDLLEPQEQLPPPPLPPPVSQVDAAIGLLMPPLQTPVNLSVFCDHNYTVEDTMHQRKREHQLEQQVEKLRKKLKTAQQRCRRQERQLEKLKEVVHFQKEKDDVSERGYVILPNDYFEIVEVPA [I149E] gave a THAP1 transcriptional activity of 0.225.
In the case of MVQSCSAYGCKNRYDKDKPVSFHKFPLTRPSLCKEWEAAVRRKNFKPTKYSSICSEHFTPDCFKRECNNKLLKENAVPTIFLCTEPHDKKEDLLEPQEQLPPPPLPPPVSQVDAAIGLLMPPLQTPVNLSVFCDHNYTVEDTMHQRKRNHQLEQQVEKLRKKLKTAQQRCRRQERQLEKLKEVVHFQKEKDDVSERGYVILPNDYFEIVEVPA [I149N], the THAP1 transcriptional activity is reported as 0.465.
Work on MVQSCSAYGCKNRYDKDKPVSFHKFPLTRPSLCKEWEAAVRRKNFKPTKYSSICSEHFTPDCFKRECNNKLLKENAVPTIFLCTEPHDKKEDLLEPQEQLPPPPLPPPVSQVDAAIGLLMPPLQTPVNLSVFCDHNYTVEDTMHQRKRKHQLEQQVEKLRKKLKTAQQRCRRQERQLEKLKEVVHFQKEKDDVSERGYVILPNDYFEIVEVPA [I149K] yielded a THAP1 transcriptional activity of 0.403.
For MVQSCSAYGCKNRYDKDKPVSFHKFPLTRPSLCKEWEAAVRRKNFKPTKYSSICSEHFTPDCFKRECNNKLLKENAVPTIFLCTEPHDKKEDLLEPQEQLPPPPLPPPVSQVDAAIGLLMPPLQTPVNLSVFCDHNYTVEDTMHQRKRFHQLEQQVEKLRKKLKTAQQRCRRQERQLEKLKEVVHFQKEKDDVSERGYVILPNDYFEIVEVPA [I149F], the THAP1 transcriptional activity was 0.539.
Variant MVQSCSAYGCKNRYDKDKPVSFHKFPLTRPSLCKEWEAAVRRKNFKPTKYSSICSEHFTPDCFKRECNNKLLKENAVPTIFLCTEPHDKKEDLLEPQEQLPPPPLPPPVSQVDAAIGLLMPPLQTPVNLSVFCDHNYTVEDTMHQRKRDHQLEQQVEKLRKKLKTAQQRCRRQERQLEKLKEVVHFQKEKDDVSERGYVILPNDYFEIVEVPA [I149D] has a THAP1 transcriptional activity of 0.218.
With MVQSCSAYGCKNRYDKDKPVSFHKFPLTRPSLCKEWEAAVRRKNFKPTKYSSICSEHFTPDCFKRECNNKLLKENAVPTIFLCTEPHDKKEDLLEPQEQLPPPPLPPPVSQVDAAIGLLMPPLQTPVNLSVFCDHNYTVEDTMHQRKRRHQLEQQVEKLRKKLKTAQQRCRRQERQLEKLKEVVHFQKEKDDVSERGYVILPNDYFEIVEVPA [I149R] the THAP1 transcriptional activity was 0.245.
Variant MVQSCSAYGCKNRYDKDKPVSFHKFPLTRPSLCKEWEAAVRRKNFKPTKYSSICSEHFTPDCFKRECNNKLLKENAVPTIFLCTEPHDKKEDLLEPQEQLPPPPLPPPVSQVDAAIGLLMPPLQTPVNLSVFCDHNYTVEDTMHQRKRGHQLEQQVEKLRKKLKTAQQRCRRQERQLEKLKEVVHFQKEKDDVSERGYVILPNDYFEIVEVPA [I149G] has a THAP1 transcriptional activity of 0.197.
MVQSCSAYGCKNRYDKDKPVSFHKFPLTRPSLCKEWEAAVRRKNFKPTKYSSICSEHFTPDCFKRECNNKLLKENAVPTIFLCTEPHDKKEDLLEPQEQLPPPPLPPPVSQVDAAIGLLMPPLQTPVNLSVFCDHNYTVEDTMHQRKRHHQLEQQVEKLRKKLKTAQQRCRRQERQLEKLKEVVHFQKEKDDVSERGYVILPNDYFEIVEVPA [I149H] showed a THAP1 transcriptional activity of 0.248.
Variant MVQSCSAYGCKNRYDKDKPVSFHKFPLTRPSLCKEWEAAVRRKNFKPTKYSSICSEHFTPDCFKRECNNKLLKENAVPTIFLCTEPHDKKEDLLEPQEQLPPPPLPPPVSQVDAAIGLLMPPLQTPVNLSVFCDHNYTVEDTMHQRKRYHQLEQQVEKLRKKLKTAQQRCRRQERQLEKLKEVVHFQKEKDDVSERGYVILPNDYFEIVEVPA [I149Y] has a THAP1 transcriptional activity of 0.445.
MVQSCSAYGCKNRYDKDKPVSFHKFPLTRPSLCKEWEAAVRRKNFKPTKYSSICSEHFTPDCFKRECNNKLLKENAVPTIFLCTEPHDKKEDLLEPQEQLPPPPLPPPVSQVDAAIGLLMPPLQTPVNLSVFCDHNYTVEDTMHQRKRQHQLEQQVEKLRKKLKTAQQRCRRQERQLEKLKEVVHFQKEKDDVSERGYVILPNDYFEIVEVPA [I149Q] was tested, and the THAP1 transcriptional activity was 0.327.
MVQSCSAYGCKNRYDKDKPVSFHKFPLTRPSLCKEWEAAVRRKNFKPTKYSSICSEHFTPDCFKRECNNKLLKENAVPTIFLCTEPHDKKEDLLEPQEQLPPPPLPPPVSQVDAAIGLLMPPLQTPVNLSVFCDHNYTVEDTMHQRKRWHQLEQQVEKLRKKLKTAQQRCRRQERQLEKLKEVVHFQKEKDDVSERGYVILPNDYFEIVEVPA [I149W] showed a THAP1 transcriptional activity of 0.164.
Variant MVQSCSAYGCKNRYDKDKPVSFHKFPLTRPSLCKEWEAAVRRKNFKPTKYSSICSEHFTPDCFKRECNNKLLKENAVPTIFLCTEPHDKKEDLLEPQEQLPPPPLPPPVSQVDAAIGLLMPPLQTPVNLSVFCDHNYTVEDTMHQRKRIDQLEQQVEKLRKKLKTAQQRCRRQERQLEKLKEVVHFQKEKDDVSERGYVILPNDYFEIVEVPA [H150D] has a THAP1 transcriptional activity of 0.609.
MVQSCSAYGCKNRYDKDKPVSFHKFPLTRPSLCKEWEAAVRRKNFKPTKYSSICSEHFTPDCFKRECNNKLLKENAVPTIFLCTEPHDKKEDLLEPQEQLPPPPLPPPVSQVDAAIGLLMPPLQTPVNLSVFCDHNYTVEDTMHQRKRICQLEQQVEKLRKKLKTAQQRCRRQERQLEKLKEVVHFQKEKDDVSERGYVILPNDYFEIVEVPA [H150C] showed a THAP1 transcriptional activity of 0.635.
MVQSCSAYGCKNRYDKDKPVSFHKFPLTRPSLCKEWEAAVRRKNFKPTKYSSICSEHFTPDCFKRECNNKLLKENAVPTIFLCTEPHDKKEDLLEPQEQLPPPPLPPPVSQVDAAIGLLMPPLQTPVNLSVFCDHNYTVEDTMHQRKRIAQLEQQVEKLRKKLKTAQQRCRRQERQLEKLKEVVHFQKEKDDVSERGYVILPNDYFEIVEVPA [H150A] showed a THAP1 transcriptional activity of 1.
